B1: stsR p3 (dsDNA)
DNA 1: CCACTTGACAATATTTTACTATAATTGTATTATATATATAACAC
DNA 2: GTGTTATATATATAATACAATTATAGTAAAATATTGTCAAGTGG
B2: stsR p3mut (dsDNA)
DNA 1: CCACTTGACAATATTTTACTCCACCTGTCCTCCATATATAACAC
DNA 2: GTGTTATATATGGAGGACAGGTGGAGTAAAATATTGTCAAGTGG

Columns and labels:
[1] = target: T1, StsR (GntR family regulator) (Streptococcus mutans UA159) (UniProt Q8DTX4); assay: EMSA; settings: 50 mM Tris/HCl, 10 mM NaCl, 0.5 M Mg acetate (so in the source), 0.1 mM EDTA, 5% glycerol, 30 min, 10 uL; 4% native PAGE in 0.5x TBS; pH and binding temperature not …
T1 sequence: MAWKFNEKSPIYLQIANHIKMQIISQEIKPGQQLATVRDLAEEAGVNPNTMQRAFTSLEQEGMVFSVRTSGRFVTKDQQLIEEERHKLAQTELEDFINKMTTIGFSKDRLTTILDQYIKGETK

[2] = target: T1, StsR (GntR family regulator) (Streptococcus mutans UA159); assay: DNase I footprinting; settings: 50 mM Tris/HCl, 10 mM NaCl, 0.5 M Mg acetate (so in the source), 0.1 mM EDTA, 5% glycerol, 30 min, 10 uL; 4% native PAGE in 0.5x TBS; pH and binding temperature not …
[3] = target: StsR (GntR family regulator) (Streptococcus mutans UA159, UniProt Q8DTX4 1-123); assay: EMSA; 10-40 pmol StsR; 50 mM Tris/HCl, 10 mM NaCl, 0.5 M Mg acetate (so in the source), 0.1 mM EDTA, 5% glycerol, 30 min, 10 uL; 4% native PAGE in 0.5x TBS; pH and binding temperature not stated (DNase I digestion at 28 C); settings: protein: recombinant; tags: His6 (pET28a); chain copies: 2; label: FITC; annealed with reverse complement

Row | Molecule | binding [1] | other results
1 | AAGTGTCTCCTTCTACTTTTTAATAAAATAGTATTGTTTACTCAAATAATCACCTTGCGGCATATCAATGGTCAATCCCGCATACATTAACTCCGCA (double strand) [multiple sugar-binding ABC transporter promoter] | binds | –
2 | CAGGGATATGAAAATGACAAATGACACTGCAAAAGCGTTTTCAAAAAATGTAAAATAAAAATGAAATAAAAAAGAAAGTAGGGTGTATTC (double strand) [mannose-specific PTS promoter] | binds | –
3 | CAAATTTTGGCAAAACTTTTGTGCCAAAATTTGAGTTTTATTAGAAAATGAAAAATGTTACAGTAGTTTTAGAATAAAAAGGAGGGGATTTCTGATGGAACGAAAATCTTCATTGAAGGTTCGGGTACA (double strand) [mannitol-specific PTS promoter] | binds | –
4 | CTTCTGTCTCCTTAAGATCTACTTACTTTTATTATACTACAAATCCTTAAAATCCTCTTACTCTTTCATTTAATTCTACTAAATCTCATCAGTCTAAATTTACCACTTGACAATATTTTACTATAATTGTATTATATATATAACACAATTATACACTGCACTTTAGAAAGGAGAAAAAATGGCT (double strand) [stsR p2 FITC] | – | binding [2]: binds
5 | CTTATAAAGTAATTTAATATCTTGATGAAATTTTAAAAAAACTTGACATTTTTCGCAAACGATTGCATAATATTATTGTAACAAAAATTACAAAGAAATTTCAGGAGGAAATCGCT (double strand) [maltose ABC transporter promoter] | binds | –
6 | CTTCTGTCTCCTTAAGATCTACTTACTTTTATTATACTACAAATCCTTAAAATCCTCTTACTCTTTCATTTAATTCTACTAAATCTCATCAGTCTAAATTTACCACTTGACAATATTTTACTATAATTGTATTATATATATAACACAATTATACACTGCACTTTAGAAAGGAGAAAAAATGGCT (double strand) [stsR p2] | binds | –
7 | B1 | – | binding result [3]: binds
8 | B2 | – | binding result [3]: no binding

— paper PMC6340165, “A GntR Family Transcription Factor in Streptococcus mutans Regulates Biofilm Formation and Expression of Multiple Sugar Transporter Genes”
